Results as given in patent US20220073599A1 (Hoffmann-La Roche, published 2022).

Tests used:
[1] = molecular target: T1, ANG2 (human, UniProt O15123 19-496, limits assumed); experiment: cell-based or functional assay
T1 sequence: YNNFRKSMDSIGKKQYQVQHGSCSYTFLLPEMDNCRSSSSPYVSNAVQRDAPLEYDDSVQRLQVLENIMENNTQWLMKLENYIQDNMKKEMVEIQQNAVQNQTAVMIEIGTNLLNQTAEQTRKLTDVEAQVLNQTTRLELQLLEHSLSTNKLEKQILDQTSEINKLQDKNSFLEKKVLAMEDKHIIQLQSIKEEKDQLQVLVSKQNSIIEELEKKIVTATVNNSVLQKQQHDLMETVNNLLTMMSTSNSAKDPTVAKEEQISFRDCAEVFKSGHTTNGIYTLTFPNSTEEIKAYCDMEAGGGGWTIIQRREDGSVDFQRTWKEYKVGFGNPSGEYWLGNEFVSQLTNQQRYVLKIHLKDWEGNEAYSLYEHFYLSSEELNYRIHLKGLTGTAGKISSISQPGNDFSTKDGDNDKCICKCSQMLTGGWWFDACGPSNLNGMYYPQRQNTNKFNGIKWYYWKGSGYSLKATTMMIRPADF

[2] = molecular target: T2, human VEGFA-121 (human, UniProt P15692 181-395); experiment: cell-based or functional assay
T2 sequence: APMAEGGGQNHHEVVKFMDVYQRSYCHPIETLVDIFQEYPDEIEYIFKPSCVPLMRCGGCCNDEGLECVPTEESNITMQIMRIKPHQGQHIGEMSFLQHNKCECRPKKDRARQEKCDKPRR

[3] = molecular target: T2, human VEGFA-121; experiment: SPR, Fab captured by anti-Fab antibody; 4) Ang2-RBD first, then VEGFA-121 (binding of VEGFA-121 in the presence of Ang2); final combined signal of both antigens
Experimental: (§1) The bispecific Fab was captured by injecting a 6.5 μg/ml solution for 60 sec at a flow of 5 μl/min. Independent binding of each ligand to the bispecific Fab was analysed by determining the active binding capacity for each ligand, either added sequentially or simultaneously (flow of 10 μl/min): [0359] […] [0360] 2) Injection of human Ang2 with a concentration of 5 μg/ml for 60 sec (identifies single binding of the antigen) [0361] […] [0362] […] [0363]
(§2) Independent binding of candidate antibodies to human VEGF-A and human ANG2 was analysed by SPR as described above in the “Materials & general methods” section.

[4] = molecular target: T3, human Ang2-RBD (human, UniProt O15123 275-496, limits assumed); experiment: SPR, Fab captured by anti-Fab antibody; 2) Ang2-RBD alone, then buffer; final signal in % of the sum of the single signals
T3 construct: also called Human ANG2 (SPR); Angiopoietin 2-RBD
T3 sequence: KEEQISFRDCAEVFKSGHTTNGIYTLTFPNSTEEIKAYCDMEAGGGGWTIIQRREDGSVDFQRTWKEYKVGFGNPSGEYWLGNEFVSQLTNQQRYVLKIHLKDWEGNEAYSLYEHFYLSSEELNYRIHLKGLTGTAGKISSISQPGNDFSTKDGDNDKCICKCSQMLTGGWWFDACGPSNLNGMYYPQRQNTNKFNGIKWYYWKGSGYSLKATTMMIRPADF
Experimental: as §1, §2

[5] = molecular target: T2, human VEGFA-121; experiment: SPR, Fab captured by anti-Fab antibody; 1) VEGFA-121 alone, then buffer; final signal in % of the sum of the single signals
Experimental: as §1, §2

[6] = molecular target: T3, human Ang2-RBD; experiment: SPR, Fab captured by anti-Fab antibody; 3) VEGFA-121 first, then Ang2-RBD (binding of Ang2 in the presence of VEGFA-121); final combined signal of both antigens
Experimental: as §1, §2

[7] = molecular target: T3, human Ang2-RBD; experiment: SPR, Fab captured by anti-Fab antibody, Ang2-RBD injected, 25 C
Experimental: An anti-Fab capturing antibody (GE Healthcare 28958325) was immobilized to a Series S Sensor Chip C1 (GE Healthcare BR100535) using standard amine coupling chemistry resulting in a surface density of approximately 800 resonance units (RU). As running and dilution buffer, HBS-P+ (10 mM HEPES, 150 mM NaCl pH 7.4, 0.05% Surfactant P20) was used, the temperature of measurement was 25° C. The tested antibody was captured by injecting a 50 nM solution for 60 sec at a flow of 5 μl/min. Association was measured by injection of human Ang2-RBD in various concentrations in solution for 180 sec at a flow of 30 μl/min (0.07 nM-50 nM, 1:3 dilution). The dissociation phase was monitored for up to 900 sec and triggered by switching from the sample solution to running buffer at a flow rate of 30 μl/min. The surface was regenerated by injection of 10 mM Glycine pH 2.1 for 60 s at a flow rate of 30 μl/min. Bulk refractive index differences were corrected by subtracting blank injections and by subtracting the response obtained from the reference flow cell without captured tested antibody. Curve fitting was performed using the 1:1 Langmuir binding model within the Biacore® evaluation software.

[8] = molecular target: T4, human VEGFA-121-His (human, UniProt P15692 181-395); experiment: SPR crossreactivity set-up, VEGF-A121-His captured by anti-His antibody, Fab injected, single cycle kinetics
T4 construct: Prepared in-house; not shown: His tag
T4 sequence: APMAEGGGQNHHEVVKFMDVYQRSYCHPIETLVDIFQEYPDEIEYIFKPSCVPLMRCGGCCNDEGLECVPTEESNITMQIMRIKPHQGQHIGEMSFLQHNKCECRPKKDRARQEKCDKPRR
Experimental: An anti-His capturing antibody (GE Healthcare 28995056) was immobilized to a Series S Sensor Chip C1 (GE Healthcare BR100535) using standard amine coupling chemistry resulting in a surface density of approximately 600 resonance units (RU). As running and dilution buffer, HBS-P+ (10 mM HEPES, 150 mM NaCl pH 7.4, 0.05% Surfactant P20) was used. […] A dilution series of the tested antibody (3.7-300 nM, 1:3 dilution) was successively injected for 60 s each, dissociation was monitored for 3600 s at a flow rate of 30 μl/min (single cycle kinetics). The surface was regenerated by injecting 10 mM Glycine pH 1.5 for 60 s at a flow of 5 μl/min. […] Curve fitting was performed using the 1:1 Langmuir binding model within the Biacore® evaluation software.
Crossreactivity to VEGF-A and ANG2 from other species was assessed as described above in “Materials & general methods” section.

Row | Binder | IC50, pTie2-Assay (Tie2 phosphorylation in Hek293 cells expressing Tie2, stimulated with Ang-2) [1] [nM] | IC50, Reporter Gene Assay (Hek_NFAT_KDR_Luc cells stimulated with VEGF-A121, luminescence) [2] [nM] | Signal [%] [3] [%] | Signal [%] [4] [%] | Signal [%] [5] [%] | Signal [%] [6] [%] | t1/2 [7] [s] | Kd [8] [nM] | koff [8] [s⁻¹] | kon [8] [M⁻¹ s⁻¹] | t1/2 [8] [h]
1 | bispecific anti-VEGF-A/anti-ANG2 Fab fragment P1AA0902 (Fab, V domains shown, Bispecific Fab with two paratopes in one VH/VL pair) VH: DDHLVESGGGLVKPGGSLRLSCATADFFEYDDMSWVRQAPGKGLEWVGSISGRGDHKYLNTKFIGRFTISRDDSKNTLYLQMNSLRAEDTAVYYCARDVGFFDWWGQGTLVTVSS VL: AIYMHQEPSSLSASVGDRVTITCHGSYWLNSELAWYQQKPGKAPKLLIFDGDFKVFDVPSRFSGSGSHEDYTLTISSLQPEDFATYYCQQYRYHPYTFGHGTKVEIKR | 7 | 1.09 | 90 | 50 | 50 | 85 |  |  |  |  | 
2 | bispecific anti-VEGF-A/anti-ANG2 Fab fragment P1AA8906 (Fab, V domains shown, Bispecific Fab with two paratopes in one VH/VL pair (DutaFab); CH1 and Ckappa) VH: DFQLVESGGGLVKPGGSLRLSCAASYEFEYDDMSWVRQAPGKGLEWVGSISPKGGSTYYNTKFIGRFTISRDNSKNTLYLQMNSLRAEDTAVYYCARDVGFFDMWGQGTLVTVSS VL: AIYMHQEPSSLSASVGDRVTITCHGSYWLSNYLAWYQQKPGKAPKLLIFDARWLVHGVPSRFSGSGSHEDYTLTISSLQPEDFATYYCQQYRYHPYTFGHGTKVEIKR |  |  | 91 | 50 | 50 | 82 | 24 |  |  |  | 
3 | bispecific anti-VEGF-A/anti-ANG2 Fab fragment P1AD9820 (Fab, V domains shown, Bispecific Fab with two paratopes in one VH/VL pair; also called P1AD9820 Fab) VH: SEHLVESGGGLVKPGGSLRLSCATADFFEYDDMSWVRQAPGKGLEWVGSISPKGDHKYLNTKFIGRFTISRDDSKNTLYLQMNSLRAEDTAVYYCARDVGFFDWWGQGTLVTVSS VL: AIYMHQEPSSLSASVGDRVTITCHGSYWLNSEVAWYQQKPGKAPKLLIFDGDFKVYEVPSRFSGSGSHEDYTLTISSLQPEDFATYYCQQYRYHPYTFGHGTKVEIKR | 10 | 1.07 | 92 | 50 | 50 | 85 |  | 0.0455 | 2.21e-05 | 486000 | 8.72
